Measurements taken from PMC6213154, “Mapping the Contact Sites of the Escherichia coli Division-Initiating Proteins FtsZ and ZapA by BAMG Cross-Linking and Site-Directed Mutagenesis” (International Journal of Molecular Sciences, 2018).

B1: ZapA (Z associated protein A), Escherichia coli (natural protein, E. coli)
chain: MSAQPVDIQIFGRSLRVNCPPDQRDALNQAADDLNQRLQDLKERTRVTNTEQLVFIAALNISYELAQEKAKTRDYAASMEQRIRMLQQTIEQALLEQGRITEKTNQNFE
notes: ZapA, Escherichia coli; source: isolated using a His-tagged version, His-tag removed by proteolysis, as described [8]
B2: FtsZ (Filamenting temperature sensitive Z), Escherichia coli (natural protein, E. coli, UniProt P0A9A6 1-383, looked up)
chain: MFEPMELTNDAVIKVIGVGGGGGNAVEHMVRERIEGVEFFAVNTDAQALRKTAVGQTIQIGSGITKGLGAGANPEVGRNAADEDRDALRAALEGADMVFIAAGMGGGTGTGAAPVVAEVAKDLGILTVAVVTKPFNFEGKKRMAFAEQGITELSKHVDSLITIPNDKLLKVLGRGISLLDAFGAANDVLKGAVQGIAELITRPGLMNVDFADVRTVMSEMGYAMMGSGVASGEDRAEEAAEMAISSPLLEDIDLSGARGVLVNITAGFDLRLDEFETVGNTIRAFASDNATVVIGTSLDPDMNDELRVTVVATGIGMDKRPEITLVTNKQVQQPVMDRYQQHGMAPLTQEQKPVAKVVNDNAPQTAKEPDYLDIPAFLRKQAD
notes: FtsZ, Escherichia coli; tryptic peptides up to the C-terminal KQAD (residues 380-383) were identified; In the cross-linking experiments a 1:1 mixture of 14N- and 15N-labelled FtsZ was used (about 95% 15N); Polymerised with GTP into protofilaments; also called ^14N-FtsZ; ^15N-FtsZ; source: E. coli BL21(DE3) pRRE6, isolated as described [52]

Legend:
[1] = target: the molecule itself; assay: cross-linking; BAMG (100-150 uM) added 30-60 s after GTP, 30 min at 30 °C; trypsin digest, enrichment on ARCO resin, SCX, LC-MS/MS; 3.4 uM FtsZ (14N:15N 1:1), 6.8 uM ZapA, 50 mM HEPES pH 7.5, 50 mM KCl, 5 mM MgCl2, 60 uM GTP; no Ca2+
[2] = target: B2; assay: as above; conditions: both partners purified
[3] = target: the molecule itself; assay: cross-linking; BAMG, LC-MS/MS; bundling conditions: FtsZ (14N:15N 1:1) without ZapA, 10 mM CaCl2, 30 uM GTP, polymerization buffer pH 7.5, 30 °C

Row | Binder | stoichiometry N [1] | binding result [2] | binding result [3]
1 | B1 | 4 | binds | –
2 | B2 | – | – | binds
